According to US20230000916A1 (University of Pennsylvania, published 2023):

Biological target: T1, F12Q CAR
T1 construct: also called F12Qz CAR; F12Q chimeric receptor
Experiment: flow cytometry; K562.64.86.F12Qz cells stained with soluble biotinylated CD3 epsilon, then streptavidin-PE

B1: Biotinylated Human CD3 epsilon Protein (AcroBiosystems Cat #CDE-H82E1) (other, UniProt P07766 23-126, looked up)
chain: DGNEEMGGITQTPYKVSISGTTVILTCPQYPGSEILWQHNDKNIGGDEDDKNIGSDEDHLSLKEFSELEQSGYYVCYPRGSKPEDANFYLYLRARVCENCMEMD
modifications: biotinylated
notes: Bought reagent; also called soluble CD3-epsilon protein; soluble, biotinylated CD3ε protein
Question: Does B1 bind?
Answer: Result: binds
